B1: A1 nanobody (VHH)
VHH: AVQLVESGGGLVQAGDSLRLSCAASGRTFSSNGMGWFRQAPGKGREFVAAISWNAGTTLYTDSVKGRFTISRDNAKNTVYLQMNSLKPEDTAIYYCAAREYYGGSYYPSREYEYGYWGQGTQVTVSS
notes: from a naive alpaca VHH phage library; HA tag joined to the C-terminus by a GA linker; a cysteine is attached at the end of the HA tag; The purified protein was confirmed with His tag and HA tag antibodies; also called CDH17 nanobody A1; source: E. coli (pColdII vector), purified (Ni-NTA); not shown: HA, C-terminal, kept
B2: CDH17 domain 1-3 (human), recombinant (domain or fragment)
chain: QEGKFSGPLKPMTFSIYEGQEPSQIIFQFKANPPAVTFELTGETDNIFVIEREGLLYYNRALDRETRSTHNLQVAALDANGIIVEGPVPITIKVKDINDNRPTFLQSKYEGSVRQNSRPGKPFLYVNATDLDDPATPNGQLYYQIVIQLPMINNVMYFQINNKTGAISLTREGSQELNPAKNPSYNLVISVKDMGGQSENSFSDTTSVDIIVTENIWKAPKPVEMVENSTDPHPIKITQVRWNDPGAQYSLVDKEKLPRFPFSIDQEGDIYVTQPLDREEKDAYVFYAVAKDEYGKPLSYPLEIHVKVKDINDNPPTC
notes: Cadherin-17 (CDH17, LI-cadherin), human, extracellular cadherin domains 1-3; soluble protein of about 40 kD; the supplementary methods (Additional file 1) may hold them; also called extracellular domain 1-3 of CDH17; CDH17 protein; source: E. coli BL21 (DE3), purified (Ni-NTA, Superdex gel filtration)
B3: E8 nanobody (VHH)
VHH: AVQLVESGGGLVQPGGSLRLSCTASGSILSFNSMGWHRQAPGRQRELVAGISIHKTSSNYANFVKGRFTISRDDAKNTVYLQMNSLKPEDTAVYYCAAVQRGQSRISYWGQGTQVTVSS
notes: from a naive alpaca VHH phage library; shorter CDR3 than A1; HA tag joined to the C-terminus by a GA linker; a cysteine is attached at the end of the HA tag; The purified protein was confirmed with His tag and HA tag antibodies; also called CDH17 nanobody E8; naked E8 nanobody; source: E. coli (pColdII vector), purified (Ni-NTA); not shown: HA, C-terminal, kept

The target in assay [1] is B2. The experiment in a line: SPR; format and conditions not told in the text shown. The settings on record: both partners purified. (In general: In SPR one partner is held on a chip, and binding of the other changes the refractive index at the surface.)
Assay [2] addresses E8-PE38 immunotoxin (alpaca (Lama pacos) | Pseudomonas …). The description is as above. As to conditions: both partners purified.

What is called Kd is the free concentration of one partner at which half of the binding sites on the other are occupied at equilibrium, for simple one-to-one binding. For B1, the dissociation constant (Kd) in assay [1] turned out to be 377 nM.
In assay [2], B2 registered a Kd of 86.9 nM.
With B3, the Kd in assay [1] was 70.3 nM.

Values taken from PMC9701387, “CDH17 nanobodies facilitate rapid imaging of gastric cancer and efficient delivery of immunotoxin” (Biomaterials Research, 2022).
